Reference: IntAct's records for PubMed 15361138

B1: Transcription factor MYB75 (Arabidopsis thaliana (Mouse-ear cress)), Q9FE25 (parent)
chain: MEGSSKGLRKGAWTTEEDSLLRQCINKYGEGKWHQVPVRAGLNRCRKSCRLRWLNYLKPSIKRGKLSSDEVDLLLRLHRLLGNRWSLIAGRLPGRTANDVKNYWNTHLSKKHEPCCKIKMKKRDITPIPTTPALKNNVYKPRPRSFTVNNDCNHLNAPPKVDVNPPCLGLNINNVCDNSIIYNKDKKKDQLVNNLIDGDNMWLEKFLEESQEVDILVPEATTTEKGDTLAFDVDQLWSLFDGETVKFD
partner: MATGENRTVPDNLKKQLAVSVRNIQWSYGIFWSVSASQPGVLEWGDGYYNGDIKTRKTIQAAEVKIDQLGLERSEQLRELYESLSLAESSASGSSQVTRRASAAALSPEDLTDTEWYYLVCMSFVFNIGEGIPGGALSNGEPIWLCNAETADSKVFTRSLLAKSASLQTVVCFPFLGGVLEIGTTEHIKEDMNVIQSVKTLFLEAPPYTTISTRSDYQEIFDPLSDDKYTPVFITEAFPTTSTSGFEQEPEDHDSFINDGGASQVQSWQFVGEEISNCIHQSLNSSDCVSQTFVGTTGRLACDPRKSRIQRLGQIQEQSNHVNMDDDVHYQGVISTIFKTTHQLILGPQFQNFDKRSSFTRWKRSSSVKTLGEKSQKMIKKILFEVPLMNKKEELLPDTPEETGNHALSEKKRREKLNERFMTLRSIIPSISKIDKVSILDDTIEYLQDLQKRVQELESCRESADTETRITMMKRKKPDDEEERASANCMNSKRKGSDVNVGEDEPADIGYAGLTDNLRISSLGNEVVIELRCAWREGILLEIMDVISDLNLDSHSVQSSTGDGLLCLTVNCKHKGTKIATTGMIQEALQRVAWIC

Variants of: B1
Settings: with egl1_arath BHLH2, Q9CAD0

effect of a mutation on the interaction | Variant
decreasing interaction | MEGSSKGLRKGAWTTEEDSLLRQCINKYGEGKWHQVPVRAGLNRCRKSCRLRWLNYLKPSIKRGKLSSDEVDLLLKLHRLLGNRWSLIAGRLPGRTANDVKNYWNTHLSKKHEPCCKIKMKKRDITPIPTTPALKNNVYKPRPRSFTVNNDCNHLNAPPKVDVNPPCLGLNINNVCDNSIIYNKDKKKDQLVNNLIDGDNMWLEKFLEESQEVDILVPEATTTEKGDTLAFDVDQLWSLFDGETVKFD [R76K]
decreasing interaction | MEGSSKGLRKGAWTTEEDSLLRQCINKYGEGKWHQVPVRAGLNRCRKSCRLRWLNYLKPSIKRGKLSSDEVDLLLELHRLLGNRWSLIAGRLPGRTANDVKNYWNTHLSKKHEPCCKIKMKKRDITPIPTTPALKNNVYKPRPRSFTVNNDCNHLNAPPKVDVNPPCLGLNINNVCDNSIIYNKDKKKDQLVNNLIDGDNMWLEKFLEESQEVDILVPEATTTEKGDTLAFDVDQLWSLFDGETVKFD [R76E]
decreasing interaction | MEGSSKGLRKGAWTTEEDSLLRQCINKYGEGKWHQVPVRAGLNRCRKSCRLRWLNYLKPSIKRGKLSSDEVDLLLRLHRALGNRWSLIAGRLPGRTANDVKNYWNTHLSKKHEPCCKIKMKKRDITPIPTTPALKNNVYKPRPRSFTVNNDCNHLNAPPKVDVNPPCLGLNINNVCDNSIIYNKDKKKDQLVNNLIDGDNMWLEKFLEESQEVDILVPEATTTEKGDTLAFDVDQLWSLFDGETVKFD [L80A]
decreasing interaction | MEGSSKGLRKGAWTTEEDSLLRQCINKYGEGKWHQVPVRAGLNRCRKSCRLRWLNYLKPSIKRGKLSSDEVDLLLRLHRLLGNRWSLIAGALPGRTANDVKNYWNTHLSKKHEPCCKIKMKKRDITPIPTTPALKNNVYKPRPRSFTVNNDCNHLNAPPKVDVNPPCLGLNINNVCDNSIIYNKDKKKDQLVNNLIDGDNMWLEKFLEESQEVDILVPEATTTEKGDTLAFDVDQLWSLFDGETVKFD [R91A]
decreasing interaction | MEGSSKGLRKGAWTTEEDSLLRQCINKYGEGKWHQVPVRAGLNRCRKSCRLRWLNYLKPSIKRGKLSSDEVDLLLRLHRLLGNRWSLIAGDLPGRTANDVKNYWNTHLSKKHEPCCKIKMKKRDITPIPTTPALKNNVYKPRPRSFTVNNDCNHLNAPPKVDVNPPCLGLNINNVCDNSIIYNKDKKKDQLVNNLIDGDNMWLEKFLEESQEVDILVPEATTTEKGDTLAFDVDQLWSLFDGETVKFD [R91D]
decreasing interaction | MEGSSKGLRKGAWTTEEDSLLRQCINKYGEGKWHQVPVRAGLNRCRKSCRLRWLNYLKPSIKRGKLSSDEVDILLRLHRLLGNRWSLIAGRLPGRTANDVKNYWNTHLSKKHEPCCKIKMKKRDITPIPTTPALKNNVYKPRPRSFTVNNDCNHLNAPPKVDVNPPCLGLNINNVCDNSIIYNKDKKKDQLVNNLIDGDNMWLEKFLEESQEVDILVPEATTTEKGDTLAFDVDQLWSLFDGETVKFD [L73I]
decreasing interaction | MEGSSKGLRKGAWTTEEDSLLRQCINKYGEGKWHQVPVRAGLNRCRKSCRLRWLNYLKPSIKRGKLSSDEVDLLLRLHSLLGNRWSLIAGRLPGRTANDVKNYWNTHLSKKHEPCCKIKMKKRDITPIPTTPALKNNVYKPRPRSFTVNNDCNHLNAPPKVDVNPPCLGLNINNVCDNSIIYNKDKKKDQLVNNLIDGDNMWLEKFLEESQEVDILVPEATTTEKGDTLAFDVDQLWSLFDGETVKFD [R79S]
